Laboratory results as given in paper PMC3413111.
Changes are numbered by the printed parent chain. Read-outs that look alike come from different tables or passages of the source.

What was measured:
Bse634I wt [1] = target: T1, Bse634I wt (UniProt Q8RT53 1-293); experiment: EMSA
T1 sequence: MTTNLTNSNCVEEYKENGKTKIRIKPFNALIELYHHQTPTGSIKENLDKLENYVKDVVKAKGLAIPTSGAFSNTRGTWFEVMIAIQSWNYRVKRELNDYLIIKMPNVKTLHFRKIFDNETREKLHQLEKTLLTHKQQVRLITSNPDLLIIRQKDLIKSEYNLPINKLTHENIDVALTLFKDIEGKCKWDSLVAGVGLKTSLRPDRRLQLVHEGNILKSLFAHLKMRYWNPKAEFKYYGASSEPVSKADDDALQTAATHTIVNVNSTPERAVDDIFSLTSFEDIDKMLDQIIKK

Bse634I wt [2] = target: T1, Bse634I wt; experiment: EMSA; remark: listed apart in the source
Bse634I R226A [3] = target: T2, Bse634I R226A (UniProt Q8RT53 1-293, R226A); experiment: crystal structure
T2 sequence: T1 sequence with R226A

Bse634I R226A [4] = target: T2, Bse634I R226A; experiment: crystal structure; remark: listed apart in the source
Bse634I R226A [5] = target: T2, Bse634I R226A; experiment: crystal structure; remark: listed apart in the source

B1: GC (dsDNA)
DNA 1: CGCACGATCGCCGGCGATGCACGC
DNA 2: GCGTGCATCGCCGGCGATCGTGCG
B1: binds (Bse634I wt [1]).

B2: AU (dsDNA)
DNA 1: CGCACGATCACCGGUGATGCACGC
DNA 2: GCGTGCATCACCGGUGATCGTGCG
modifications: dU for T at position 15 of each strand
B2: binds (Bse634I wt [2]).

B3: IC (dsDNA)
DNA 1: CGCACGATCGCCGGCGATGCACGC
DNA 2: GCGTGCATCGCCGGCGATCGTGCG
modifications: inosine for G at position 10 of each strand (written as G)
B3: binds (Bse634I wt [2]).

B4: AT (dsDNA)
DNA 1: CGCACGATCACCGGTGATGCACGC
DNA 2: GCGTGCATCACCGGTGATCGTGCG
B4: binds (Bse634I wt [1]).

B5: AT-2 (dsDNA)
DNA 1: TTCGACCGGTCGA
DNA 2: TTCGACCGGTCGA
B5: binds (Bse634I R226A [3]).

B6: AT-1 (dsDNA)
DNA 1: TCGCACCGGTGCG
DNA 2: TCGCACCGGTGCG
B6: binds (Bse634I R226A [4]).

B7: GC-1 (dsDNA)
DNA 1: TCGCGCCGGCGCG
DNA 2: TCGCGCCGGCGCG
B7: binds (Bse634I R226A [5]).
